The experiment relates to CAP nucleic acid binding element (CAP10/CAP11 and CAP12/CAP13). The experiment is described as follows: multiwell plate assay, immobilized CAP10/CAP11 and biotin-labeled CAP12/CAP13, streptavidin-peroxidase detection. The note with it: for Absorbance (450 nm), + CAP: 200 μM cAMP. The protocol: To illustrate the extensive flexibility of the invention in terms of detection mode, an experiment following the general design depicted in FIG. 1E was performed. The following oligonucleotides, which when fully assembled contain a complete CAP nucleic acid binding element, were synthesized (X=amino-dT; B=biotin):
The CAP10 oligonucleotide was hybridized with the CAP11 oligonucleotide to generate the first nucleic acid component. The CAP 12 oligonucleotide was hybridized with the CAP13 oligonucleotide to generate the second nucleic acid component. For hybridization, appropriate oligonucleotides were (1) mixed at 10 μM concentration in 100 μl of buffer (500 mM Na2HPO4, pH 8.6, 1 mM EDTA, in the case of CAP10/CAP11 oligonucleotides; and 20 mM Tris, pH 8.0, 100 mM NaCl, 10 μM EDTA, in the case of CAP12/CAP13 oligonucleotides), (2) heated for 1 min at 95° C., and then (3) cooled to 25° C for 1 hr. The first nucleic acid component (CAP10/CAP11 half-site duplex) was covalently attached to the wells of a N-oxysuccinimide-activated 96 well plate (DNA-BIND, Corning, Acton, Mass.) by incubating 200 μl of first nucleic acid component (at 100 nM) per well in 500 mM Na2HPO4 (pH 8.6), 1 mM EDTA buffer for 1 hr followed by washing with 50 mM Tris (pH 8.0), 100 mM NaCl, 1 mM EDTA containing 0.1 mg/ml BSA. […] After incubation for 1 hr at room temperature, the wells were washed twice with the buffer followed with the addition of streptavidin-linked horseradish peroxidase (Pierce, Rockford, Ill.) at the dilution recommended by the manufacturer. After 30 min of incubation, the wells were washed twice with buffer followed with the addition of 100 μl of Turbo-TMB™ peroxidase substrate solution (Pierce, Rockford, Ill.). […] The absorbance at 450 nm of the sample and control wells were read using a standard microplate reader.

B1: CAP: bacterial transcription activator from E. coli which binds DNA in a sequence specific, cAMP-dependent manner (protein, UniProt P0ACJ8 2-210, looked up)
DNA-binding transcriptional …: VLGKPQTDPTLEWFLSHCHIHKYPSKSTLIHQGEKAETLYYIVKGSVAVLIKDEEGKEMILSYLNQGDFIGELGLFEEGQERSAWVRAKTACEVAEISYKKFRQLIQVNPDILMRLSAQMARRLQVTSEKVGNLAFLDVTGRIAQTLLNLAKQPDAMTHPDGMQIKITRQEIGQIVGCSRETVGRILKMLEDQNLISAHGKTIVVYGTR
For the molecule B1, the “increase in absorbance signal compared to controls without CAP or cAMP” value (10 nM CAP12/CAP13) is “approximately 3 fold”. Besides, the “Absorbance (450 nm), + CAP” value is, setting by setting: (10 nM CAP12/CAP13, 250 nM CAP) 0.7308; (20 nM CAP12/CAP13, 250 nM CAP) 0.8584.

(Values after patent US7172865B2, “Rapid and sensitive assay for the detection and quantification of coregulators of nucleic acid binding factors” (Saint Louis University, priority 2001, dated 2007).)
